{"source": "the supplement of paper PMC9112550", "about": "“Optimization of the antimicrobial peptide Bac7 by deep mutational scanning” (BMC Biology, 2022);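 note: peptides expressed intracellularly from a pBAD plasmid library in pooled LB shake-flask culture, induced with 0.3% L-arabinose, DNA abundance read by NGS, three biological replicates, DESeq2 with apeglm shrinkage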"}
{"tested_on": "Escherichia coli TOP10", "assay": "shrunken log2 fold change of peptide-encoding DNA abundance (4.5 h post-induction vs induction); higher = less antimicrobial activity (less host growth inhibition)", "conditions": "time post-induction: 4.5 h; library: site-saturation at positions 5, 18, 19, 20"}
{"sequence": "RRIRGRPPRLPRPRPRPRQFPRP", "shrunken log2 fold change": 0.354}
{"sequence": "RRIRGRPPRLPRPRPRPENDPRP", "shrunken log2 fold change": 1.74}
{"sequence": "RRIRFRPPRLPRPRPRPHHFPRP", "shrunken log2 fold change": -0.053}
{"sequence": "RRIRLRPPRLPRPRPRPKEDPRP", "shrunken log2 fold change": -0.184}
{"sequence": "RRIRVRPPRLPRPRPRPVDYPRP", "shrunken log2 fold change": -0.034}
{"sequence": "RRIRVRPPRLPRPRPRPYVCPRP", "shrunken log2 fold change": -0.525}
{"sequence": "RRIRHRPPRLPRPRPRPTAAPRP", "shrunken log2 fold change": 0.518}
{"sequence": "RRIRCRPPRLPRPRPRPQWFPRP", "shrunken log2 fold change": -0.106}
{"sequence": "RRIRHRPPRLPRPRPRPVRMPRP", "shrunken log2 fold change": 0.246}
{"sequence": "RRIRLRPPRLPRPRPRPPILPRP", "shrunken log2 fold change": -0.287}
{"sequence": "RRIRNRPPRLPRPRPRPTELPRP", "shrunken log2 fold change": -0.0232}
{"sequence": "RRIRKRPPRLPRPRPRPRLMPRP", "shrunken log2 fold change": 0.989}
{"sequence": "RRIRCRPPRLPRPRPRPQNYPRP", "shrunken log2 fold change": -0.485}
{"sequence": "RRIRGRPPRLPRPRPRPCCAPRP", "shrunken log2 fold change": 1.55}
{"sequence": "RRIRDRPPRLPRPRPRPSIMPRP", "shrunken log2 fold change": -0.0808}
{"sequence": "RRIRFRPPRLPRPRPRPLTDPRP", "shrunken log2 fold change": -0.143}
{"sequence": "RRIRTRPPRLPRPRPRPLGAPRP", "shrunken log2 fold change": 0.0945}
{"sequence": "RRIRSRPPRLPRPRPRPQLKPRP", "shrunken log2 fold change": 0.0348}
{"sequence": "RRIRFRPPRLPRPRPRPQIHPRP", "shrunken log2 fold change": -0.995}
{"sequence": "RRIRGRPPRLPRPRPRPGYLPRP", "shrunken log2 fold change": 0.0499}
{"sequence": "RRIRWRPPRLPRPRPRPKMTPRP", "shrunken log2 fold change": 0.175}
{"sequence": "RRIRWRPPRLPRPRPRPWIGPRP", "shrunken log2 fold change": 0.0176}
{"sequence": "RRIRQRPPRLPRPRPRPEVMPRP", "shrunken log2 fold change": 0.0824}
{"sequence": "RRIRQRPPRLPRPRPRPEVGPRP", "shrunken log2 fold change": -0.0239}
{"sequence": "RRIRCRPPRLPRPRPRPGRLPRP", "shrunken log2 fold change": -0.0858}
{"sequence": "RRIRARPPRLPRPRPRPRFMPRP", "shrunken log2 fold change": 0.0944}
{"sequence": "RRIRERPPRLPRPRPRPAGDPRP", "shrunken log2 fold change": 3.19}
{"sequence": "RRIRLRPPRLPRPRPRPGQGPRP", "shrunken log2 fold change": -0.0179}
{"sequence": "RRIRNRPPRLPRPRPRPHPTPRP", "shrunken log2 fold change": -0.0363}
{"sequence": "RRIRFRPPRLPRPRPRPFNWPRP", "shrunken log2 fold change": -0.975}
{"sequence": "RRIRDRPPRLPRPRPRPESRPRP", "shrunken log2 fold change": 0.0324}
{"sequence": "RRIRMRPPRLPRPRPRPDVNPRP", "shrunken log2 fold change": 0.0361}
{"sequence": "RRIRARPPRLPRPRPRPITDPRP", "shrunken log2 fold change": -0.0703}
{"sequence": "RRIRMRPPRLPRPRPRPFIDPRP", "shrunken log2 fold change": -0.438}
{"sequence": "RRIRLRPPRLPRPRPRPGTMPRP", "shrunken log2 fold change": -0.0422}
{"sequence": "RRIRERPPRLPRPRPRPYYKPRP", "shrunken log2 fold change": -0.231}
{"sequence": "RRIRPRPPRLPRPRPRPGKPPRP", "shrunken log2 fold change": 0.306}
{"sequence": "RRIRERPPRLPRPRPRPKVQPRP", "shrunken log2 fold change": 0.105}
{"sequence": "RRIRDRPPRLPRPRPRPPCWPRP", "shrunken log2 fold change": 0.407}
{"sequence": "RRIRVRPPRLPRPRPRPDEHPRP", "shrunken log2 fold change": 0.0107}
{"sequence": "RRIRYRPPRLPRPRPRPFEYPRP", "shrunken log2 fold change": -0.0492}
{"sequence": "RRIRMRPPRLPRPRPRPNCMPRP", "shrunken log2 fold change": 0.183}
{"sequence": "RRIRQRPPRLPRPRPRPRKQPRP", "shrunken log2 fold change": 0.505}
{"sequence": "RRIRARPPRLPRPRPRPDFGPRP", "shrunken log2 fold change": 0.106}
{"sequence": "RRIRSRPPRLPRPRPRPGMTPRP", "shrunken log2 fold change": -0.105}
{"sequence": "RRIRHRPPRLPRPRPRPVKMPRP", "shrunken log2 fold change": -0.0874}
{"sequence": "RRIRSRPPRLPRPRPRPKSHPRP", "shrunken log2 fold change": -0.158}
{"sequence": "RRIRYRPPRLPRPRPRPPFVPRP", "shrunken log2 fold change": -0.304}
{"sequence": "RRIRWRPPRLPRPRPRPRARPRP", "shrunken log2 fold change": 0.773}
{"sequence": "RRIRFRPPRLPRPRPRPSFDPRP", "shrunken log2 fold change": -0.62}
{"sequence": "RRIRHRPPRLPRPRPRPNPRPRP", "shrunken log2 fold change": -0.0621}
{"sequence": "RRIRIRPPRLPRPRPRPPYGPRP", "shrunken log2 fold change": -0.202}
{"sequence": "RRIRTRPPRLPRPRPRPMGDPRP", "shrunken log2 fold change": -0.0264}
{"sequence": "RRIRTRPPRLPRPRPRPQNAPRP", "shrunken log2 fold change": -0.12}
{"sequence": "RRIRERPPRLPRPRPRPNMWPRP", "shrunken log2 fold change": -0.647}
{"sequence": "RRIRARPPRLPRPRPRPAVWPRP", "shrunken log2 fold change": 0.64}
{"sequence": "RRIRHRPPRLPRPRPRPFDVPRP", "shrunken log2 fold change": -0.168}
{"sequence": "RRIRGRPPRLPRPRPRPEDNPRP", "shrunken log2 fold change": 0.892}
{"sequence": "RRIRGRPPRLPRPRPRPNQCPRP", "shrunken log2 fold change": 0.0163}
{"sequence": "RRIRARPPRLPRPRPRPNRPPRP", "shrunken log2 fold change": -0.111}
{"sequence": "RRIRDRPPRLPRPRPRPKHTPRP", "shrunken log2 fold change": 0.136}
{"sequence": "RRIRKRPPRLPRPRPRPWDSPRP", "shrunken log2 fold change": 0.0485}
{"sequence": "RRIRRRPPRLPRPRPRPWRYPRP", "shrunken log2 fold change": 0.322}
{"sequence": "RRIRARPPRLPRPRPRPNHSPRP", "shrunken log2 fold change": -0.55}
{"sequence": "RRIRPRPPRLPRPRPRPQFIPRP", "shrunken log2 fold change": -0.653}
{"sequence": "RRIRERPPRLPRPRPRPWYRPRP", "shrunken log2 fold change": -0.217}
{"sequence": "RRIRSRPPRLPRPRPRPNKKPRP", "shrunken log2 fold change": -0.194}
{"sequence": "RRIRVRPPRLPRPRPRPHTEPRP", "shrunken log2 fold change": -0.042}
{"sequence": "RRIRDRPPRLPRPRPRPQINPRP", "shrunken log2 fold change": -0.0439}
{"sequence": "RRIRERPPRLPRPRPRPMMTPRP", "shrunken log2 fold change": -0.067}
{"sequence": "RRIRQRPPRLPRPRPRPNYWPRP", "shrunken log2 fold change": -0.251}
{"sequence": "RRIRIRPPRLPRPRPRPHFQPRP", "shrunken log2 fold change": -1.78}
{"sequence": "RRIRERPPRLPRPRPRPNGKPRP", "shrunken log2 fold change": -0.0394}
{"sequence": "RRIRIRPPRLPRPRPRPEWPPRP", "shrunken log2 fold change": 0.0836}
{"sequence": "RRIRARPPRLPRPRPRPQAWPRP", "shrunken log2 fold change": 0.376}
{"sequence": "RRIRMRPPRLPRPRPRPTPMPRP", "shrunken log2 fold change": 0.981}
{"sequence": "RRIRFRPPRLPRPRPRPHHPPRP", "shrunken log2 fold change": -0.374}
{"sequence": "RRIRKRPPRLPRPRPRPNKLPRP", "shrunken log2 fold change": -0.0293}
{"sequence": "RRIRIRPPRLPRPRPRPVHRPRP", "shrunken log2 fold change": -0.194}
{"sequence": "RRIRDRPPRLPRPRPRPNKKPRP", "shrunken log2 fold change": -0.117}
{"sequence": "RRIRHRPPRLPRPRPRPTRGPRP", "shrunken log2 fold change": 0.0497}
{"sequence": "RRIRDRPPRLPRPRPRPDPMPRP", "shrunken log2 fold change": 0.0611}
{"sequence": "RRIRARPPRLPRPRPRPGQMPRP", "shrunken log2 fold change": 0.0151}
{"sequence": "RRIRARPPRLPRPRPRPFCSPRP", "shrunken log2 fold change": -0.0878}
{"sequence": "RRIRPRPPRLPRPRPRPERMPRP", "shrunken log2 fold change": 0.122}
{"sequence": "RRIRLRPPRLPRPRPRPLLIPRP", "shrunken log2 fold change": -0.514}
{"sequence": "RRIRQRPPRLPRPRPRPVNEPRP", "shrunken log2 fold change": -0.325}
{"sequence": "RRIRSRPPRLPRPRPRPNPTPRP", "shrunken log2 fold change": 0.017}
{"sequence": "RRIRKRPPRLPRPRPRPGTEPRP", "shrunken log2 fold change": 0.542}
{"sequence": "RRIRCRPPRLPRPRPRPAKYPRP", "shrunken log2 fold change": -0.299}
{"sequence": "RRIRDRPPRLPRPRPRPFLGPRP", "shrunken log2 fold change": -0.0161}
